These results are taken from PMC5897774, “Mitotic spindle association of TACC3 requires Aurora‐A‐dependent stabilization of a cryptic α‐helix” (The EMBO Journal, 2018).

Non-standard residues stand in square brackets, D forms with d. No end group written: not given here. pS = N[C@@H](COP(=O)(O)O)C(=O)O; FAM = fluorescein label

To fix the notation:
B2: FAM‐TACC3 549–570 phosphorylated on S558 (FAM‐phospho‐TACC3^CID) (peptide, UniProt Q9Y6A5 549-570, looked up)
peptide: {FAM}-FKESALRKQ[pS]LYLKFDPLLRDS
notes: TACC3, human, aa549–570 (TACC3^CID); also called pTACC3^CID; FAM‐labelled pTACC3^CID; source: FAM‐labelled peptide (FAM‐TACC3 peptides: PPR, Cambridge; Almac, Craigavon)

For one test, the target named is T1, Aurora‐A R151A (Homo sapiens, UniProt O14965, C290A/C393A/R151A).
T1 construct: pET30TEV Aurora‐A 122–403 C290A, C393A were produced in a similar manner; made in house
T1 sequence (O14965 122-403 R151A/C290A/C393A): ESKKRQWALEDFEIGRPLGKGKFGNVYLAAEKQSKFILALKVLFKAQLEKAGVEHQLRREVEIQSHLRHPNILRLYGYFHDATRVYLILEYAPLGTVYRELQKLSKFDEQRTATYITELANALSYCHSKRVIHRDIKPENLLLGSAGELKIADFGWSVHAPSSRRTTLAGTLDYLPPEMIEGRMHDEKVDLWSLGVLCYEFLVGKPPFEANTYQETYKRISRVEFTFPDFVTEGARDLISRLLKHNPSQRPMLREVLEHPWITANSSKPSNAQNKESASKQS
Put plainly: FP binding assay, Aurora‐A R151A. As to conditions: fluorescence polarization, Aurora‐A R151A relative to WT Aurora‐A. (In fluorescence polarisation assays a small probe gives low polarisation when free and higher when bound to something large.)

Test [1] deals with B2. The test can be described thus: fluorescence polarisation; CHC proteins serially diluted in 20 mM HEPES–NaOH pH 7.5, 200 mM NaCl, 5 mM DTT; 50 nM FAM‐labelled TACC3 peptide; 30 min at room temperature; read at 25°C. The conditions noted are these: both partners purified.
Test [2] concerns the target T2, FAM‐phospho‐TACC3^CID L559A (human, UniProt Q9Y6A5 549-570, L559A, fluorescein (FAM) label; phosphoserine at 558).
T2 construct: TACC3, human, aa549–570 (TACC3^CID); source: FAM‐labelled peptide (FAM‐TACC3 peptides: PPR, Cambridge; Almac, Craigavon)
T2 peptide (looked up): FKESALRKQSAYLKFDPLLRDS
The test is described as above. As to conditions: both partners purified.

Test [3] concerns the target T3, FAM‐phospho‐TACC3^CID Y560A (human, UniProt Q9Y6A5 549-570, Y560A, fluorescein (FAM) label; phosphoserine at 558).
T3 construct: TACC3, human, aa549–570 (TACC3^CID); source: FAM‐labelled peptide (FAM‐TACC3 peptides: PPR, Cambridge; Almac, Craigavon)
T3 peptide (looked up): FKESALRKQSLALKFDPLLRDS
The description is as above. As to conditions: both partners purified.

Test [4] deals with T4, FAM‐phospho‐TACC3^CID F563A (human, UniProt Q9Y6A5 549-570, F563A, fluorescein (FAM) label; phosphoserine at 558).
T4 construct: TACC3, human, aa549–570 (TACC3^CID); source: FAM‐labelled peptide (FAM‐TACC3 peptides: PPR, Cambridge; Almac, Craigavon)
T4 peptide (looked up): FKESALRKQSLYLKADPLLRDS
The test is described as above. As to conditions: both partners purified.

In test [5] the target is The R555A mutation alone or in combination with K556A (FAM‐phospho‐TACC3^CID peptides). Described as above.
A further test has as its target T5, TACC3 552-567 pS558 (Homo sapiens, also: FAM-labelled, place not given here).
T5 chain: SALRKQ[pS]LYLKFDPLL
The test can be described thus: FP.

The next test deals with T6, TACC3 546-573 pS558 (Homo sapiens, phospho-Ser558; FAM-labelled).
T6 chain: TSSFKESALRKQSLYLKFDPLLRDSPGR
The test can be described thus: FP.

In the next test the target is T7, CHC 1–574 L503A/Y504A (UniProt Q00610 1-574, L503A | Y504A).
T7 construct: source: expressed and purified as the WT protein (modified pGEX vector; GST cleaved with TEV)
T7 sequence (looked up): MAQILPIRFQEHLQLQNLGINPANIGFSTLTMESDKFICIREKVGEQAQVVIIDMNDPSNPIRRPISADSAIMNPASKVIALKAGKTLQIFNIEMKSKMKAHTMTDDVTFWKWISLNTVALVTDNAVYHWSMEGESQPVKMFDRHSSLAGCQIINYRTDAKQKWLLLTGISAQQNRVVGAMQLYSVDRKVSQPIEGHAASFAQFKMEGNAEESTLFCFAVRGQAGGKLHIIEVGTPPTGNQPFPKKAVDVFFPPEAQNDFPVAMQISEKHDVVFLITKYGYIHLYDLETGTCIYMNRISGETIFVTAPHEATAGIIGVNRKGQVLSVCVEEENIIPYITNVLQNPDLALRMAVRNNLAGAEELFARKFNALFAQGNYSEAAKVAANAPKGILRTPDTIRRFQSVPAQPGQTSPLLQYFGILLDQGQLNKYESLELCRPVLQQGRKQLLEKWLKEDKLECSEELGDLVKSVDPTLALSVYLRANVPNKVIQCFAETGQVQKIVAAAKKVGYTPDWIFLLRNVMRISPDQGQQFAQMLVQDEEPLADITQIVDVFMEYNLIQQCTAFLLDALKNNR
Put plainly: fluorescence polarisation; CHC proteins serially diluted in 20 mM HEPES–NaOH pH 7.5, 200 mM NaCl, 5 mM DTT; 50 nM FAM‐labelled TACC3 peptide; 30 min at room temperature; read at 25°C. The conditions noted are these: both partners purified.

For the next test, the target named is T8, CHC 1–574 L480D (UniProt Q00610 1-574, L480D).
T8 construct: source: expressed and purified as the WT protein (modified pGEX vector; GST cleaved with TEV)
T8 sequence (looked up): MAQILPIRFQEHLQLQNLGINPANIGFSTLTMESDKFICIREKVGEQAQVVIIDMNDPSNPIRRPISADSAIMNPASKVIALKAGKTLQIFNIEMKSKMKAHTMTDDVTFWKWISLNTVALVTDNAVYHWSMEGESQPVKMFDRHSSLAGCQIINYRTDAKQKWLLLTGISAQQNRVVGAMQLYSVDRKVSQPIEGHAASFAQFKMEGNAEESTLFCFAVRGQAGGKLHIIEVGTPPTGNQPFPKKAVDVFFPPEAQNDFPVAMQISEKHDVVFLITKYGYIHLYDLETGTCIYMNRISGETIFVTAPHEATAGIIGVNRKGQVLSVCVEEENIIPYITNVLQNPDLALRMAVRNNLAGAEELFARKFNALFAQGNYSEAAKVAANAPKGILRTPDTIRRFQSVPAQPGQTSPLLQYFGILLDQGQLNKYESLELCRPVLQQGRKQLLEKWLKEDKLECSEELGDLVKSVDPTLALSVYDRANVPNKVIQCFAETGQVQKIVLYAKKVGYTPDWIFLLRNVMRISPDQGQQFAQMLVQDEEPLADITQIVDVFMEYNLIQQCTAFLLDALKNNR
The test is described as above. The conditions noted are these: both partners purified.

For another test, the target named is T9, CHC 1–574 L476D, L480D (UniProt Q00610 1-574, L476D | L480D).
T9 construct: source: expressed and purified as the WT protein (modified pGEX vector; GST cleaved with TEV)
T9 sequence (looked up): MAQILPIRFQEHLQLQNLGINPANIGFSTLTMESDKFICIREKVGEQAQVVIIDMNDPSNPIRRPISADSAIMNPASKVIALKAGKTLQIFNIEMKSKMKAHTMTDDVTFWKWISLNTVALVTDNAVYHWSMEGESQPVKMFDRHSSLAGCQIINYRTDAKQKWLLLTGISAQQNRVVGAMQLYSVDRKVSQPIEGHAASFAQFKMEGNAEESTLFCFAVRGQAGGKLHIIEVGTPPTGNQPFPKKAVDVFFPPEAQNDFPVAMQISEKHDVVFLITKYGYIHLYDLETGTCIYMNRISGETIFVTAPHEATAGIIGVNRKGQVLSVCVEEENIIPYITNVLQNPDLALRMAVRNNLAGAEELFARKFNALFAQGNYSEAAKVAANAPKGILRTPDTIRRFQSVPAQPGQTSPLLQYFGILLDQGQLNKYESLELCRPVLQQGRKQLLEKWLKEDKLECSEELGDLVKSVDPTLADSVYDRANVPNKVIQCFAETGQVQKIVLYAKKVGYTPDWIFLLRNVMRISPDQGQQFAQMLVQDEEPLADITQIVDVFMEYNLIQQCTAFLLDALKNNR
Described as above. The conditions noted are these: both partners purified.

A further test deals with T10, CHC 1–574 R481E (UniProt Q00610 1-574, R481E).
T10 construct: source: expressed and purified as the WT protein (modified pGEX vector; GST cleaved with TEV)
T10 sequence (looked up): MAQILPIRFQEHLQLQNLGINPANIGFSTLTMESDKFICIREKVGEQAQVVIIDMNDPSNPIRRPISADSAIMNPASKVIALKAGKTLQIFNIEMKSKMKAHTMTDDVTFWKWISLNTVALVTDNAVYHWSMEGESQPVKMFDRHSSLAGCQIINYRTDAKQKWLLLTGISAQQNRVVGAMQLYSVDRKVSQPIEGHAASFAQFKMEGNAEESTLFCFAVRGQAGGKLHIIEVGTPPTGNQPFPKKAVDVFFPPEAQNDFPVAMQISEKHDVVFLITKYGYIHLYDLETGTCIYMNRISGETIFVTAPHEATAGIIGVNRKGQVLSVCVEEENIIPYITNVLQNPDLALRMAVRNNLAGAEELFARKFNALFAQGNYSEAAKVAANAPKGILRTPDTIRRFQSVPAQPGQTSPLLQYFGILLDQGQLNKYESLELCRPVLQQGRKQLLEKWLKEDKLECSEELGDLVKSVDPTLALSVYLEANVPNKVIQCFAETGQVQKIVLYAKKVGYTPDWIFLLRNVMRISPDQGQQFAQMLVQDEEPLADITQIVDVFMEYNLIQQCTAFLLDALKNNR
The description is as above. The conditions noted are these: both partners purified.

Protocol for Aurora‐A R151A: The contributions of the site 1 residues to the interaction were quantified using fluorescence polarization spectroscopy (FP) with a set of fluorescein (FAM)‐labelled peptides.
Binding assays were performed in triplicate. FP signal was fit to a one‐site total binding model in Prism 6 (GraphPad). Results are reported as K d ± SE.

Take `CC(C)C[C@H](NC(=O)[C@@H](NC(=O)[C@H](CCC(=O)O)NC(=O)[C@H](C)NC(=O)[C@@H]1CCCN1C(=O)[C@H](CC(=O)O)NC(=O)[C@H](CCCNC(=N)N)NC(=O)[C@H](Cc1ccccc1)NC(=O)[C@H](CO)NC(=O)[C@H](CCC(=O)O)NC(=O)[C@H](CCC(=O)O)NC(=O)c1ccc2c(c1)C(=O)OC21c2ccc(O)cc2Oc2cc(O)ccc21)C(C)C)C(=O)NCC(=O)N[C@H](C(=O)NCC(=O)N[C@@H](C)C(=O)O)[C@@H](C)O` [FAM‐TACC3 522–536]: the reduced affinity on Aurora‐A R151A worked out at 40 fold.

B1: CHC 1–574 (clathrin heavy chain propeller‐ankle fragment) (domain or fragment, UniProt Q00610 1-574, looked up)
chain: MAQILPIRFQEHLQLQNLGINPANIGFSTLTMESDKFICIREKVGEQAQVVIIDMNDPSNPIRRPISADSAIMNPASKVIALKAGKTLQIFNIEMKSKMKAHTMTDDVTFWKWISLNTVALVTDNAVYHWSMEGESQPVKMFDRHSSLAGCQIINYRTDAKQKWLLLTGISAQQNRVVGAMQLYSVDRKVSQPIEGHAASFAQFKMEGNAEESTLFCFAVRGQAGGKLHIIEVGTPPTGNQPFPKKAVDVFFPPEAQNDFPVAMQISEKHDVVFLITKYGYIHLYDLETGTCIYMNRISGETIFVTAPHEATAGIIGVNRKGQVLSVCVEEENIIPYITNVLQNPDLALRMAVRNNLAGAEELFARKFNALFAQGNYSEAAKVAANAPKGILRTPDTIRRFQSVPAQPGQTSPLLQYFGILLDQGQLNKYESLELCRPVLQQGRKQLLEKWLKEDKLECSEELGDLVKSVDPTLALSVYLRANVPNKVIQCFAETGQVQKIVLYAKKVGYTPDWIFLLRNVMRISPDQGQQFAQMLVQDEEPLADITQIVDVFMEYNLIQQCTAFLLDALKNNR
notes: source: modified pGEX vector
The term Kd denotes the free concentration of one partner at which half of the binding sites on the other are occupied at equilibrium, for simple one-to-one binding. Take B1: in [1], the “fold increase in affinity against non‐phosphorylated TACC3^CID” value stood at 4 fold. The “fold reduction in affinity against WT” value was no less than 4 fold in [2], no less than 4 fold in test [3], no less than 4 fold in test [4] and 4 to 5 fold in [5]. Besides, the Kd with TACC3 552-567 pS558 was 48 µM; with TACC3 546-573 pS558, 39 µM.
As to B2, the Kd in the test with CHC 1–574 L503A/Y504A was greater than 300 µM; with CHC 1–574 L480D, greater than 300 µM; in the test with CHC 1–574 L476D, L480D it was greater than 300 µM; with CHC 1–574 R481E, greater than 300 µM.
